Source: patent US20060292145A1 (JAPAN SCIENCE AND TECHNOLOGY, published 2006)

Target: T1, human interleukin-18 (human, UniProt Q14116 37-193)
T1 construct: Immobilised on plates in the ELISAs; also called human IL-18; IL-18
T1 sequence (looked up): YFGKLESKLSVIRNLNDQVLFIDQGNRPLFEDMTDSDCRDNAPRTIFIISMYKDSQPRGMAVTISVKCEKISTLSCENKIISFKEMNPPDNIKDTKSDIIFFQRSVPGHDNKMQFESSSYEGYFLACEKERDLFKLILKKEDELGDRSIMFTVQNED
Experiment: phage ELISA, scFv-presenting phage on immobilised human IL-18 (HSA as comparison), anti-M13 detection, A405
Description: ELISA for screening separated clones was carried out by immobilizing human IL-18 on an ELISA plate. Specifically, 2 μg/ml of human IL-18 and 2.5 μg/ml of human serum albumin (HSA) were put in a 40 μL/well ELISA plate (Nunc), allowed to stand for 16 hours at 4° C., and then immobilized on the plate. For blocking, 400 μL/well of PBS solution containing 0.5% BSA, 0.5% gelatin, and 5% skim milk was put in the ELISA plate, and then allowed to stand for 2 hours at 4° C.
Next, into the ELISA plate, 40 μL/well of sample solution containing an scFV-presenting phage was poured, and the mixture was allowed to react. Thereafter, the sample solution was removed, and the product was washed 5 times by using a cleaning liquid. Subsequently, to the immobilized scFv phage, a biotin-labeled anti-M13 monoclonal antibody (Pharmacia biotech) was added, and the mixture was allowed to react with an alkaline phosphatase (AP)-labeled anti-mouse IgG antibody serving as a secondary antibody. The reaction liquid was washed 5 times by using a cleaning liquid.

B1: human anti-human IL-18 scFv fragment h18-108 (scFv, V domains shown)
VH: QVQLVQSGAEVRRPGASVRVSCKASGYTFTSHYIHWVRQAPGQGLEWVAIINPSDGRTDYAQKFQGRVTVTRDTSASSVYMGISSLRSEDTAMYYCARTARGFSYATDWGQGTLVTVSS
VL: SYELTQPPSVSVSPGQTARITCSGDALPKKYAYWYQQKPGQAPVLVIYKDSERPSGIPERFSGSSSGTTVTLTISGVQAEDEADYYCQSADSSGTYVVFGGGTQLTVL
notes: Expressed in E. coli from pCANTAB5E and purified on anti-E tag antibody; By gel filtration 90% monomer, 10% dimer
Question: Does B1 bind?
Answer: Result: binds
